The values below come from publication doi:10.1101/2023.06.23.546255.

The target of test [1] is _(FITC)…, fluorescently labeled high-affinity peptide. As to the kind of experiment: fluorescence polarisation. (Polarisation of emitted light reports the rotation of a fluorescent probe.)
For test [2], the target named is chicken Tapasin (chTapasin), luminal domain (chicken (Gallus gallus)). As to the kind of experiment: NMR chemical shift perturbation.
Test [3] has the same target. Kind of test: SPR. Background: SPR reads the build-up and loss of mass on a sensor chip optically.

Some results are limits rather than exact numbers.

Usually Kd stands for the equilibrium constant for the complex coming apart. A higher Kd goes with weaker binding. On to “open B*37:01/chTapasin complex (empty) (from UniProt P61769 21-119)”, for which the Kd in test [1] turned out to be 5.5 nM. On to “open HLA-B*37:01 (G120C)/β2m (H31C), UV-irradiated (empty) (from UniProt P61769 21-119) (complex)”, for which the lifetime of the complex in test [2] was > 200 ms. The equilibrium dissociation constant (Kd) in test [3] was determined as 1200 nM.
